Assay results published in paper PMC10506094.

Assays:
[1] = target: Loa22 of L. borgpetersenii sv. Ballum str. M2, endogenous (Leptospira borgpetersenii sv. Ballum str. M2 (endogenous in cultivated cells)); assay: SDS-PAGE and immunoblot of whole cell lysates; Leptospira cells in SDS-PAGE buffer (4% SDS, 2% β-ME), sonicated and heated (10 min, 99 °C); blot screened with anti-Loa22_(27-197) antiserum; oligomer read from the size of the bands
[2] = target: Loa22 of L. interrogans sv. Canicola str. Kito, endogenous (Leptospira interrogans sv. Canicola str. Kito (endogenous in cultivated cells)); assay: as above
[3] = target: Loa22 of L. interrogans sv. Copenhageni str. Fiocruz L1-130, endogenous (Leptospira interrogans sv. Copenhageni str. Fiocruz L1-130 (endogenous in cultivated cells)); assay: as above
[4] = target: Loa22 of L. interrogans sv. Pomona str. LC82-25, endogenous (Leptospira interrogans sv. Pomona str. LC82-25 (endogenous in cultivated cells)); assay: as above
[5] = target: Loa22 of L. kirschneri sv. Grippotyphosa str. RM52, endogenous (Leptospira kirschneri sv. Grippotyphosa str. RM52 (endogenous in cultivated cells)); assay: as above
[6] = target: Loa22 of L. noguchii sv. Autumnalis str. Bonito, endogenous (Leptospira noguchii sv. Autumnalis str. Bonito (endogenous in cultivated cells)); assay: as above
[7] = SEC; TSKgel G4000SWXL column, PBS as mobile phase, 1.0 mL/min; 50 µg recombinant protein injected (25 µL); MW from a standard curve of globular proteins; fractions checked by SDS-PAGE and immunoblot with anti-Loa22_(27-197) antiserum
[8] = target: recombinant Loa22_(27-197) (Leptospira OmpA-like 22 kDa protein) of L. interrogans sv. Copenhageni str. Fiocruz L1-130 (Leptospira interrogans sv. Copenhageni str. Fiocruz L1-130); assay: as above

Loa22 of L. borgpetersenii sv. Ballum str. M2, endogenous (natural protein)
stoichiometry N [1]: 3

Loa22 of L. interrogans sv. Canicola str. Kito, endogenous (natural protein)
stoichiometry N [2]: 3

Loa22 of L. interrogans sv. Copenhageni str. Fiocruz L1-130, endogenous (natural protein)
stoichiometry N [3]: 3

Loa22 of L. interrogans sv. Pomona str. LC82-25, endogenous (natural protein)
stoichiometry N [4]: 3

Loa22 of L. kirschneri sv. Grippotyphosa str. RM52, endogenous (natural protein)
stoichiometry N [5]: 3

Loa22 of L. noguchii sv. Autumnalis str. Bonito, endogenous (natural protein)
stoichiometry N [6]: 3

recombinant Loa22_(27-197) (Leptospira OmpA-like 22 kDa protein) of L. interrogans sv. Copenhageni str. Fiocruz L1-130
percent of the protein as monomer (area under the SEC peaks) [7]: a majority of the recombinant protein exists as a monomer (89% of the total)

recombinant Loa22_(27-197) (Leptospira OmpA-like 22 kDa protein) of L. interrogans sv. Copenhageni str. Fiocruz L1-130 (domain or fragment)
stoichiometry N [8]: 3
